Results: patent CN116023497A (WEST CHINA HOSPITAL SICHUAN UNIV, dated 2023)

Key:
[1] = molecular target: T1, DDR1胞外段(DDR1 ECD), His标签 (human); assay: SPR (Biacore), 1:1 model; His-tagged DDR1 ECD on NTA chip, Tytug as analyte
T1 chain: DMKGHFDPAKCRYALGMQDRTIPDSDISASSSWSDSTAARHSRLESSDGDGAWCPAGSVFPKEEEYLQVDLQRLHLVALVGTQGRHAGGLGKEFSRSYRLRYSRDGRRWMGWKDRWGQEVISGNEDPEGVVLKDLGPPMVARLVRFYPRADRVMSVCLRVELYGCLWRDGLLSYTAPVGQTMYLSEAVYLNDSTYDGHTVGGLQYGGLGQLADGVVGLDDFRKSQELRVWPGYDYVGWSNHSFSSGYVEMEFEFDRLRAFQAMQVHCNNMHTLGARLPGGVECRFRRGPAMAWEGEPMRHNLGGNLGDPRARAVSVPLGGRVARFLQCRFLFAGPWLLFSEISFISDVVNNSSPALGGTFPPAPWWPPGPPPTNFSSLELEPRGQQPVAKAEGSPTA

[2] = molecular target: T2, DDR2胞外段 (UniProt Q16832 22-399); assay: ELISA, coated DDR2 ECD, dilution series of Tytug
T2 construct: range 22-399; also called DDR2 ECD
T2 sequence (looked up): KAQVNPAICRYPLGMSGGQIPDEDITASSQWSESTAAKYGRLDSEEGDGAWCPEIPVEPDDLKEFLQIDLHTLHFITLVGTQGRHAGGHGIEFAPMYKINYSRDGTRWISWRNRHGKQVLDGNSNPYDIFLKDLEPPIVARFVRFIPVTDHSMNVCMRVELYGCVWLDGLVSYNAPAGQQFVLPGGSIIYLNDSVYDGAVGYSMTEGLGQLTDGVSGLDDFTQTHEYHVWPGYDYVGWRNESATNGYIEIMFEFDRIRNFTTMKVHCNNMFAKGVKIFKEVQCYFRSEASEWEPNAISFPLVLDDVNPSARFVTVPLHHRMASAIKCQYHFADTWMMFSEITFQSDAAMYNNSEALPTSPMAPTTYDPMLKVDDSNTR

[3] = molecular target: T1, DDR1胞外段(DDR1 ECD), His标签; assay: SPR (Biacore), 1:1 model; His-tagged DDR1 ECD on NTA chip, Tytug as analyte; exponent printed without minus sign, kd/ka gives 2.26e-10

koff [1]: 4.66e-05 s⁻¹ | kon [1]: 207000 M⁻¹ s⁻¹ | binding result [2]: no binding | Kd [3]: 226 pM
B1: Tytug抗体 (antibody, IgG1, V domains shown)
VH: QVQLQQPGAELVRPGSSVRLSCKASGYSFTSYWMNWVKQRPGQGLEWIGMIHPSDSKTRLDQKFKDKATLTVDKSSSTAYMQLSSPTSEDSAVYYCAREGTYYYAMDFWGQGTSVTVSS
VL: DVLMTQTPLSLPVSLGDQASISCRSSQTIVHSNGNTYLEWYLQKPGQSPKLLIYKVSNRFSGVPDRFSGSGSGTDFTLKISRVEAEDLGVYYCFQGSHDPYTFGGGTKLEIK
notes: Mouse hybridoma monoclonal antibody; also called T4-E11-F10; T4-E11-F10(Tytug)
